Data taken from US20220073611A1.

Molecular target: NR1 ATD fusion protein on 293T-ATD cells (human)
Test: flow cytometry on 293T-ATD cells, co-stained with commercial anti-NR1 mAb

Sequence of NR1 ATD fusion protein on 293T-ATD cells (human) (chain, as listed by the source limits assumed): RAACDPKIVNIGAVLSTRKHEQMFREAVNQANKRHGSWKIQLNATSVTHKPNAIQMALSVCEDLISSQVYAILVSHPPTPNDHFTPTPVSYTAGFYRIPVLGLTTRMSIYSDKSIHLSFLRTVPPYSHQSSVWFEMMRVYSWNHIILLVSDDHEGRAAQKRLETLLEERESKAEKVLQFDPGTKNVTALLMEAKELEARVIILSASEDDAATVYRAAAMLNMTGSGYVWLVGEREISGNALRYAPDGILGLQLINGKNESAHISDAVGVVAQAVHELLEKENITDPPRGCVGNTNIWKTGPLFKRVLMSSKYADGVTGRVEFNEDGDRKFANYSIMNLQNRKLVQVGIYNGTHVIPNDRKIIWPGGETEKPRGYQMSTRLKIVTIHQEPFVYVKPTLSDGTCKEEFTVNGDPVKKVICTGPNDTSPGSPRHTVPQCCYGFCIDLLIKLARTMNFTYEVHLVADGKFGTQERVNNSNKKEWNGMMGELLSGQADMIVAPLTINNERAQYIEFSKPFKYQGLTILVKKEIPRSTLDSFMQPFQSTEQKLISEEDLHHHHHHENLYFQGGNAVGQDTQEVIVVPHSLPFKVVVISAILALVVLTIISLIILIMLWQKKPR

Percent GluN1 positive 293T-ATD cells bound: 18%
double positive cells: 12.4%
Substance: 6A isotype control human mAb (antibody)
